In the supplement of paper PMC10126150:
± gives the standard deviation of the averaged measurements.

Tested on: ATP
Test: switch fluorescence ratio, 500 uM ATP over buffer (Cy3 cluster intensity, sum of 5 cycles each) (fold (ratio)); higher = stronger signal-on switching upon ATP binding; sequences stand for … in TCGTCGGCAGCGTCAGATGTGTATAAGAGACAGTTTTTTTTTTTTTTTTTTTTTTTTT…TC
Conditions: aptamer strand: ATP DNA aptamer (quencher-CACCTGGGGGAGTATTGCGGAGGAAGG + anchor), 100 nM annealed; ATP concentration: 500 uM
Method in brief: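 Clusters carrying Cy3-labelled switching strands on a modified Illumina MiSeq flow-cell were annealed to 100 nM quencher-labelled ATP aptamer and imaged in selection buffer. They were imaged again after 15 min with 500 uM ATP at 22 °C, over five buffer/ATP cycles with NaOH stripping and re-annealing in between. For each cluster, the fluorescence ratio is the summed Cy3 intensity of the target cycles divided by that of the buffer cycles, averaged per switch-domain sequence. Clusters outside 100-1000 RFU were left out.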
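Note: ATP exposure 15 min at 22 °C before imaging.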

Sequence | switch fluorescence ratio
ACTTCTCGGT | 0.992 ± 0.017
ACTTCTGGAG | 2.15 ± 0.028
ACTTGAAAAT | 1.002 ± 0.0095
ACTTGATTTT | 1.02 ± 0.015
ACTTGCACTC | 1.34 ± 0.057
ACTTGCCTGT | 1.005 ± 0.01
ACTTGGCAAA | 1.16 ± 0.02
ACTTGGCATC | 1.13 ± 0.043
ACTTGGGCGT | 1.03 ± 0.038
ACTTGGTGTG | 1.01 ± 0.052
ACTTGGTTGG | 0.9869 ± 0.00088
ACTTGTAGCT | 1.02 ± 0.011
ACTTGTCGCG | 1.02 ± 0.033
ACTTGTGGGC | 0.973 ± 0.045
ACTTTATCTT | 1.063 ± 0.01
ACTTTATTTC | 1.011 ± 0.006
ACTTTCGGGA | 0.995 ± 0.011
ACTTTCTGGA | 1 ± 0.024
ACTTTCTTAC | 1.12 ± 0.017
ACTTTGAATG | 1.02 ± 0.027
ACTTTGATGT | 1.01 ± 0.012
ACTTTGGTTA | 1.04 ± 0.042
ACTTTGTCTG | 0.991 ± 0.041
ACTTTTAGTT | 1.05 ± 0.018
ACTTTTGACT | 0.982 ± 0.022

Sequence | switch fluorescence ratio
AGAAACAGGA | 1.04 ± 0.04
AGAAAGGCGG | 0.9715 ± 0.0027
AGAAAGGGGT | 1.01 ± 0.055
AGAAAGTGGT | 0.992 ± 0.017
AGAAATTCAT | 0.992 ± 0.029
AGAAATTGGA | 1.02 ± 0.044
AGAAATTTGG | 1.01 ± 0.02
AGAACATAGA | 0.986 ± 0.0025
AGAACCGTGT | 0.989 ± 0.041
AGAACGTCTA | 1 ± 0.054
AGAAGAGCTT | 1.011 ± 0.0024
AGAAGAGTTT | 0.95 ± 0.018
AGAAGATTGA | 0.999 ± 0.019
AGAAGGGTAT | 0.976 ± 0.017
AGAAGGTGGG | 1.01 ± 0.021
AGAAGGTTTG | 0.963 ± 0.01
AGAAGTACGT | 1.04 ± 0.013
AGAAGTCGGA | 1 ± 0.011
AGAAGTGGAG | 1.004 ± 0.01
AGAAGTTGAG | 0.984 ± 0.01
AGAAGTTTCG | 1.011 ± 0.0068
AGAATATGGG | 0.994 ± 0.011
AGAATATGTT | 0.983 ± 0.014
AGAATCACTG | 1.08 ± 0.04
AGAATGATCG | 0.994 ± 0.033

Sequence | switch fluorescence ratio
AGAATGATTG | 0.988 ± 0.017
AGAATGGGTT | 1.03 ± 0.029
AGAATTCCGT | 0.992 ± 0.01
AGAATTTCAT | 1.01 ± 0.0045
AGAATTTGTT | 1 ± 0.024
AGACAAAAAT | 1.026 ± 0.0065
AGACACGTTA | 1.28 ± 0.017
AGACAGGGGG | 1.11 ± 0.2
AGACATTCCT | 1.3 ± 0.34
AGACCTCTTT | 0.988 ± 0.02
AGACGAGGCT | 1.01 ± 0.021
AGACGGGGGC | 0.978 ± 0.12
AGACTAAAAG | 0.986 ± 0.015
AGACTGAATT | 1.03 ± 0.02
AGACTGATAC | 1.08 ± 0.025
AGACTGGGCT | 1.01 ± 0.011
AGACTGGGTT | 0.971 ± 0.012
AGACTGTTAG | 0.976 ± 0.029
AGACTTGTTA | 0.971 ± 0.021
AGACTTTTGG | 0.987 ± 0.011
AGAGAAAGGC | 1.08 ± 0.051
AGAGAACGCT | 0.967 ± 0.035
AGAGACTGAG | 1.045 ± 0.0026
AGAGAGCGAA | 1.01 ± 0.022
AGAGAGGACG | 1.02 ± 0.033

Sequence | switch fluorescence ratio
AGAGAGTGAC | 0.981 ± 0.01
AGAGAGTTAT | 1.02 ± 0.011
AGAGAGTTTG | 1.01 ± 0.02
AGAGATGTGG | 0.958 ± 0.036
AGAGCATTTG | 1.01 ± 0.058
AGAGCCACTG | 1.01 ± 0.024
AGAGCCGGGA | 0.988 ± 0.043
AGAGCGGA | 0.981 ± 0.011
AGAGCGGCAA | 2.81 ± 2.4
AGAGGAAAGG | 1.022 ± 0.0041
AGAGGAGGGA | 0.9737 ± 0.0047
AGAGGAGGGG | 1.01 ± 0.042
AGAGGATGAT | 0.962 ± 0.013
AGAGGATTTT | 1 ± 0.015
AGAGGCAAGA | 1.16 ± 0.028
AGAGGCAAGG | 1.0062 ± 0.0002
AGAGGCCGAT | 1.022 ± 0.0012
AGAGGCGTTA | 1.01 ± 0.025
AGAGGGAATG | 0.975 ± 0.03
AGAGGGACAT | 1.09 ± 0.1
AGAGGGCATT | 0.967 ± 0.045
AGAGGGGGGG | 0.999 ± 0.038
AGAGGGGGTG | 0.96 ± 0.013
AGAGGGGTTG | 0.972 ± 0.016
AGAGGGTACG | 1.06 ± 0.017

Sequence | switch fluorescence ratio
AGAGGGTCTC | 0.973 ± 0.058
AGAGGGTTAC | 0.999 ± 0.036
AGAGGGTTTT | 0.988 ± 0.031
AGAGGTAAGG | 0.983 ± 0.019
AGAGGTAGGG | 0.984 ± 0.035
AGAGGTGTGC | 1.049 ± 0.01
AGAGGTGTGG | 0.991 ± 0.05
AGAGGTTAAG | 1.03 ± 0.08
AGAGGTTATT | 0.9994 ± 0.0069
AGAGTAAGTG | 0.962 ± 0.025
AGAGTAGTGT | 0.99 ± 0.032
AGAGTAGTTG | 0.9708 ± 0.0076
AGAGTATGAA | 1 ± 0.032
AGAGTATGGG | 1.01 ± 0.038
AGAGTGCGGT | 1.011 ± 0.006
AGAGTGGGGT | 0.962 ± 0.033
AGAGTGGGTG | 0.978 ± 0.013
AGAGTGGTGG | 0.9769 ± 0.0097
AGAGTGTTTC | 0.943 ± 0.038
AGAGTTATGC | 1.022 ± 0.01
AGAGTTGAGA | 1.0102 ± 0.001
AGAGTTGTTA | 0.996 ± 0.013
AGAGTTTGAA | 1.02 ± 0.024
AGAGTTTTCT | 0.9916 ± 0.0094
AGATACGAGG | 1.03 ± 0.011

Sequence | switch fluorescence ratio
AGATACTGCA | 1.05 ± 0.0087
AGATAGAGTA | 1.006 ± 0.0033
AGATAGATTG | 1 ± 0.04
AGATAGGG | 0.96188 ± 0.00038
AGATAGGGAT | 1.04 ± 0.053
AGATATAATA | 1.02 ± 0.035
AGATATAGCG | 1.029 ± 0.0076
AGATATCATG | 0.973 ± 0.037
AGATATGGTG | 1.01 ± 0.089
AGATATGTGT | 0.998 ± 0.013
AGATATTAGA | 1.017 ± 0.0048
AGATATTGGG | 0.992 ± 0.068
AGATCGCTTG | 0.975 ± 0.0019
AGATCGTGGG | 1.04 ± 0.015
AGATCTTGTG | 1 ± 0.022
AGATGAATGC | 0.989 ± 0.011
AGATGACGTT | 1.01 ± 0.046
AGATGACTTT | 0.98 ± 0.034
AGATGAGGGC | 1.04 ± 0.022
AGATGAGTGT | 1 ± 0.02
AGATGATCAG | 0.982 ± 0.02
AGATGCATGG | 1.02 ± 0.025
AGATGCCATG | 1.032 ± 0.0075
AGATGCCGAC | 1.02 ± 0.054
AGATGCGGTA | 1.01 ± 0.029

Sequence | switch fluorescence ratio
AGATGCTGGT | 0.994 ± 0.015
AGATGGGGGG | 1.02 ± 0.033
AGATGGGGGT | 1.016 ± 0.0053
AGATGGTAGG | 0.986 ± 0.023
AGATGTAGTG | 0.9948 ± 0.0036
AGATGTCTAC | 0.989 ± 0.018
AGATTAGCGC | 0.9812 ± 0.0063
AGATTATGGG | 0.974 ± 0.033
AGATTGTTGG | 0.989 ± 0.019
AGATTGTTTA | 0.981 ± 0.019
AGATTTAGAG | 1.011 ± 0.0032
AGATTTCGGC | 1.039 ± 0.0015
AGATTTTCTG | 1.01 ± 0.025
AGCAAAATGG | 1.0258 ± 0.00022
AGCAAACTTG | 1.04 ± 0.049
AGCAAAGAGC | 0.99 ± 0.037
AGCAAATTCT | 1.16 ± 0.072
AGCAACCTTT | 1.16 ± 0.039
AGCACGCACA | 1.77 ± 0.06
AGCACGTTTT | 1.01 ± 0.025
AGCAGAGGAC | 0.971 ± 0.058
AGCAGCGCGG | 1.04 ± 0.042
AGCAGTGGAC | 1.23 ± 0.016
AGCAGTTTTT | 0.996 ± 0.028
AGCATGATGG | 1.04 ± 0.021

Sequence | switch fluorescence ratio
AGCATGGCTG | 1.01 ± 0.001
AGCATGGGAG | 0.991 ± 0.034
AGCATGTCTG | 0.986 ± 0.01
AGCATTTTCA | 1.24 ± 0.32
AGCCAGAAGT | 0.991 ± 0.022
AGCCAGGTGG | 1.27 ± 0.14
AGCCATATTT | 1.04 ± 0.028
AGCCATGGCT | 0.9927 ± 0.0099
AGCCATGTGA | 1.01 ± 0.011
AGCCATTTGT | 1.015 ± 0.0063
AGCCCCTTAG | 1.002 ± 0.0065
AGCCCTAAGG | 0.979 ± 0.045
AGCCCTGGGG | 1.02 ± 0.011
AGCCGGCTGC | 1.03 ± 0.024
AGCCGGGTAT | 1.01 ± 0.016
AGCCGGTTCC | 1.014 ± 0.0092
AGCCTCTATA | 1.012 ± 0.0066
AGCCTGCCCT | 1.067 ± 0.0053
AGCCTGGGGA | 1.001 ± 0.0018
AGCCTGGTGG | 1.05 ± 0.013
AGCCTGTTTT | 0.9861 ± 0.0011
AGCCTTGGGA | 1 ± 0.024
AGCGAAAGGA | 1.01 ± 0.023
AGCGAAATTT | 1.04 ± 0.023
AGCGACGGAG | 0.966 ± 0.024
